According to patent US20110217237A1 (AbbVie / Abbott, published 2011):

How the values were obtained:
mouse DLL4 on cells [1] = target: T1, mouse DLL4 on cells (mouse, UniProt Q9JI71 27-686); test: FACS, direct binding to DLL4 cells
T1 construct: whole, on cells; also called mouse DLL4-293G; mu DLL4 cells
Description: (§1) Stable cell lines overexpressing cell-surface DLL4 were harvested from tissue culture flasks, washed four times and resuspended in phosphate buffered saline (PBS) containing 1% bovine serum albumin and 1 mM CaCl₂ (FACS buffer). 1.5×10⁵ cells were incubated with antibodies at various concentrations in FACS buffer for 60 minutes on ice. […] Following an incubation on ice (4° C., 60 minutes), cells were washed three times and resuspended in FACS buffer. Fluorescence was measured using a Becton Dickinson FACSCalibur-HTS (Becton Dickinson, San Jose, Calif., US). Data were analyzed using Graphpad Prism software and EC₅₀ values were reported as the concentration of antibody to achieve 50% of maximal DLL4 antibodies binding to DLL4 expressing cells.
(§2) The hu1A11.1 affinity matured clones (Table 22) were expressed, purified, and further characterized in vitro. Their activities of binding to cell-bound DLL4 and inhibiting cell-bound DLL4-induced Notch activation were further examined using methods described in Examples 1.3 and 1.6, and are summarized in Table 26 (below).

[2] = target: T2, human DLL4, full length, on cells (human, UniProt Q9NR61 27-685); test: FACS, direct binding to DLL4 cells
T2 construct: also called huDLL4 cells; human DLL4-293G
Description: as §1, §2

[3] = target: T3, human DLL4 extracellular domain (human, UniProt Q9NR61 27-529); test: SPR (Biacore)
T3 construct: purified recombinant ECD; biotin-labelled or 6xHis-tagged depending on the assay; also called huDLL4 ECD; hu DLL4 ECD
Description: (§3) The BIACORE® surface plasmon resonance assay (Biacore, Inc., Piscataway, N.J., US) determines the affinity of antibodies with kinetic measurements of on-rate and off-rate constants. Binding of DLL4 antibodies to a purified recombinant DLL4 extracellular domain (ECD) was determined by surface plasmon resonance-based measurements with a Biacore® instrument (either a Biacore 2000, Biacore 3000, or Biacore T100; GE Healthcare, Piscataway, N.J., US) using running buffer HBS-EPB (10 mM HEPES [pH 7.4], 150 mM NaCl, 3 mM EDTA, 0.1 mg/ml BSA and 0.005% surfactant P20) at 25° C. For example, approximately 9000 RU of goat anti-human Fc specific polyclonal antibody (Thermo Fisher Scientific Inc., Rockford, Ill., US) diluted in 10 mM sodium acetate (pH 4.5) is directly immobilized across a CMS research grade biosensor chip using a standard amine coupling kit according to manufacturer's instructions and procedures at 25 μg/ml. Unreacted moieties on the biosensor surface were blocked with ethanolamine. For kinetic analysis, rate equations derived from the 1:1 Langmuir binding model were fitted simultaneously to multiple antigen injections (using global fit analysis) with the use of Scrubber 2 (BioLogic Software), Biacore Biaevaluation 4.0.1 software or Biacore T100 Evaluation software. Purified antibodies were diluted in running buffer for capture across goat anti-human Fc reaction surfaces. Antibodies to be captured as a ligand (1 μg/ml) were injected over reaction matrices at a flow rate of 10 μl/min. During the assay, all measurements were referenced against the capture surface alone (i.e., with no captured anti-DLL4 antibody). […] The equilibrium dissociation constant KD (M) of the reaction between antibodies and the target antigen was then calculated from the kinetic rate constants by the following formula: KD=Koff/Kₒₙ. Binding was recorded as a function of time and kinetic rate constants were calculated.

[4] = target: T4, cynomolgus monkey DLL4 extracellular domain (cynomolgus monkey); test: SPR (Biacore)
T4 construct: extracellular domain; also called cynoDLL4 ECD; Cyno DLL4
Description: as §3

[5] = target: T5, mouse DLL4 extracellular domain (mouse, UniProt Q9JI71 27-532); test: SPR (Biacore)
T5 construct: extracellular domain; also called muDLL4 ECD; murine DLL4
Description: as §3

[6] = target: T6, rat DLL4 extracellular domain (rat, UniProt D3ZHH1 28-530); test: SPR (Biacore)
T6 construct: extracellular domain; also called ratDLL4 ECD
Description: as §3

mouse DLL4 on cells [7] = target: T1, mouse DLL4 on cells; test: cell-based or functional assay
[8] = target: T2, human DLL4, full length, on cells; test: cell-based or functional assay

T3 sequence (Q9NR61 27-529 limits assumed): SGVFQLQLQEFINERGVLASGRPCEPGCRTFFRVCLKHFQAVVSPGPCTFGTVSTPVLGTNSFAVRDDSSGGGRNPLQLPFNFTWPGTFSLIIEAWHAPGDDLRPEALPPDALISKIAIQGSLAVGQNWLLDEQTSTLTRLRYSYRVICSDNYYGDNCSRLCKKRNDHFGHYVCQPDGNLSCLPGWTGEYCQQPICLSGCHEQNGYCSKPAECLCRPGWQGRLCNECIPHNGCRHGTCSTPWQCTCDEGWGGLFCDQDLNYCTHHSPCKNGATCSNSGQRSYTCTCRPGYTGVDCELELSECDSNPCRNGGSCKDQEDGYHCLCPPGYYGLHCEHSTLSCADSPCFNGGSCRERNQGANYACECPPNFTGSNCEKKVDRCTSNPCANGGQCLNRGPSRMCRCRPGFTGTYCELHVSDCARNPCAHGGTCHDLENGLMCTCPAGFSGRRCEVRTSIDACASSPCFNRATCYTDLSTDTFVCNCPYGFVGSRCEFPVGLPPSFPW
T5 sequence (Q9JI71 27-532): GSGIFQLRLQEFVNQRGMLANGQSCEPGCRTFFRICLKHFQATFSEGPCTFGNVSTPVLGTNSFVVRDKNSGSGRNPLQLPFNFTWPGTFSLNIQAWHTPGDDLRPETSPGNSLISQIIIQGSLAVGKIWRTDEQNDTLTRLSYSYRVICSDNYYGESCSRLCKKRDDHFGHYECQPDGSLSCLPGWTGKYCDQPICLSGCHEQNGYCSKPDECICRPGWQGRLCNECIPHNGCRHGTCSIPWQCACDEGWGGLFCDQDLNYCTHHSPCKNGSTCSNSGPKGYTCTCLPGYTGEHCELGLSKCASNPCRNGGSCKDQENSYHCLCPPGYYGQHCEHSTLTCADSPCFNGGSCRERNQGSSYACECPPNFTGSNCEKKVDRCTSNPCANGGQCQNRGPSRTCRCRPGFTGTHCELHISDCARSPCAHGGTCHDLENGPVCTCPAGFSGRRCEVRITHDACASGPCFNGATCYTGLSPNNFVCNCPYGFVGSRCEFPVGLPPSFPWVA
T6 sequence (D3ZHH1 28-530): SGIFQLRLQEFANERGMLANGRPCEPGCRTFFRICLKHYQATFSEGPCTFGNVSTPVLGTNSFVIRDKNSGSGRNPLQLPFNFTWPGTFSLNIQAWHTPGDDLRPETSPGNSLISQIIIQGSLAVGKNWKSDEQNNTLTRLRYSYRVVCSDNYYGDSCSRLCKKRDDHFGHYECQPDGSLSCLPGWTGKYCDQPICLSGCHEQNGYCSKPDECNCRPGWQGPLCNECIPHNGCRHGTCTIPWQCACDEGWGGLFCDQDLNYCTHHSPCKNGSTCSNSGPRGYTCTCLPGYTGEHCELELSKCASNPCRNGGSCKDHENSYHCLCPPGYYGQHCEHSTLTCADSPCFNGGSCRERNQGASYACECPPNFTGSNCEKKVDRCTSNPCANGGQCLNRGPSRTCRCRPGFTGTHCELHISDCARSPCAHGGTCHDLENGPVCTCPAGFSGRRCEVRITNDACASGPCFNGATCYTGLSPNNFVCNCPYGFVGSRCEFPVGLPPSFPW
T2 sequence (Q9NR61 27-685 limits assumed): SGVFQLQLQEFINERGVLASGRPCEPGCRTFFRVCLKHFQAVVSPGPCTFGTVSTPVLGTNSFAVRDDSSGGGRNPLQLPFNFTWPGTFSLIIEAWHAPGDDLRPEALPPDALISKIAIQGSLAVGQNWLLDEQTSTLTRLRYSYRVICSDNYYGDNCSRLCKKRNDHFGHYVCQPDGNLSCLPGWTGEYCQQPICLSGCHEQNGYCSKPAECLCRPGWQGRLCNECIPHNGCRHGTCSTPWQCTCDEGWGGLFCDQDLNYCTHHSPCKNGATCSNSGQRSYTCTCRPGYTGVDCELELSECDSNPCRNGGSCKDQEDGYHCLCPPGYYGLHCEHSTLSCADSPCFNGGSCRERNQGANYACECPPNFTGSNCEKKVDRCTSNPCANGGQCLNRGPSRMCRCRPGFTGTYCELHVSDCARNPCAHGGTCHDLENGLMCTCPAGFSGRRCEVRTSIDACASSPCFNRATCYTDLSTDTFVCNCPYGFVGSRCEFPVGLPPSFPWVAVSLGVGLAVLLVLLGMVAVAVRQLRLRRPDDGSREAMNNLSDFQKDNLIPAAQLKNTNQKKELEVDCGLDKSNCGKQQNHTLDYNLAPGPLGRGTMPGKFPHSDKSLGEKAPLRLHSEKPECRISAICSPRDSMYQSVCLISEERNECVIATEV
T1 sequence (Q9JI71 27-686): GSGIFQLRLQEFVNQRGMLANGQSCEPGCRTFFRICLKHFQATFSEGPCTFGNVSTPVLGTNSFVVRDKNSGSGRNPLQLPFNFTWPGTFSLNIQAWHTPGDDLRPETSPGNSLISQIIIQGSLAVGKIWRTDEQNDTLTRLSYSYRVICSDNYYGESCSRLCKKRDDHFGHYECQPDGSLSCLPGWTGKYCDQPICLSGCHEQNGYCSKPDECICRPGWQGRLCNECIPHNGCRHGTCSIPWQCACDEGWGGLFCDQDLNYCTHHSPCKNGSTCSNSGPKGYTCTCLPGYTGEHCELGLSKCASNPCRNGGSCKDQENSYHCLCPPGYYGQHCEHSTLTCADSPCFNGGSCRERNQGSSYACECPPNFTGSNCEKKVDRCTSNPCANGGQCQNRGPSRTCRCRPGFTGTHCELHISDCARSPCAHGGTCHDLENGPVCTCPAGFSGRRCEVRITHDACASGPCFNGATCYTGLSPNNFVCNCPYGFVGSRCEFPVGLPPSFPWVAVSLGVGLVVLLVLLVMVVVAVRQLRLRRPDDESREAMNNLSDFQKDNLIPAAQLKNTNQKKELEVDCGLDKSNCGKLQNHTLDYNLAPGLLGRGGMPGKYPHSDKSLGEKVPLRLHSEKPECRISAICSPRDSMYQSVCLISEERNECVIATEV

Binder	EC50 (mouse DLL4 on cells [1])	EC50 [2]	Kd [3]	koff [3]	kon [3]	Kd [4]	koff [4]	kon [4]	Kd [5]	koff [5]	kon [5]	Kd [6]	koff [6]	kon [6]	Inhibition of Notch Activation via DLL4 cells, Notch reporter assay (mouse DLL4 on cells [7])	Inhibition of Notch Activation via DLL4 cells, Notch reporter assay [8]	binding result [6]
h1A11.A6 (antibody, V domains shown, also called h1A11.A6 VH / h1A11VL.1) VH: EVQLVESGGGLVQPGGSLRLSCAASGFTFRHFPMAWVRQAPGKGLEWVATISSSDAWPSYRDSVKGRFTISRDNAKNSLYLQMNSLRAEDTAVYYCSRGYYNSPFAYWGQGTLVTVSS VL: DIQMTQSPSSLSASVGDRVTITCRASEDIYSNLAWYQQKPGKAPKLLIYDTNNLADGVPSRFSGSGSGTDFTLTISSLQPEDFATYYCQQYNNYPPTFGQGTKLEIK	0.636 nM	2.23 nM	0.036 nM	6.62e-06 s⁻¹	182000 M⁻¹ s⁻¹	0.12 nM	2.1e-05 s⁻¹	171000 M⁻¹ s⁻¹	0.16 nM	3.12e-05 s⁻¹	198000 M⁻¹ s⁻¹	6 nM	0.000772 s⁻¹	129000 M⁻¹ s⁻¹	1.17 nM	0.746 nM	
h1A11.A7 (antibody, V domains shown, also called h1A11VH.1 / h1A11.A7 VL) VH: EVQLVESGGGLVQPGGSLRLSCAASGFTFSNFPMAWVRQAPGKGLEWVATISSSDGTTYYRDSVKGRFTISRDNAKNSLYLQMNSLRAEDTAVYYCARGYYNSPFAYWGQGTLVTVSS VL: DIQMTQSPSSLSASVGDRVTITCRASQDIYINLAWYQQKPGKAPKLLIFDTSDLADGVPSRFSGSGSGTDFTLTISSLQPEDFATYYCQQYDYYPPTFGQGTKLEIK	0.625 nM	2.17 nM	5.7 nM	0.000973 s⁻¹	170000 M⁻¹ s⁻¹	7.8 nM	0.00124 s⁻¹	158000 M⁻¹ s⁻¹							1.79 nM	2.92 nM	no binding
h1A11.B4 (antibody, V domains shown, also called h1A11VH.1 / h1A11.B4 VL) VH: EVQLVESGGGLVQPGGSLRLSCAASGFTFSNFPMAWVRQAPGKGLEWVATISSSDGTTYYRDSVKGRFTISRDNAKNSLYLQMNSLRAEDTAVYYCARGYYNSPFAYWGQGTLVTVSS VL: DIQMTQSPSSLSASVGDRVTITCRASQDIYYNLAWYQQKPGKAPKLLIFDTNILADGVPSRFSGSGSGTDFTLTISSLQPEDFATYFCQQYDYVPPTFGQGTKLEIK	0.665 nM	2.15 nM	5.2 nM	0.000823 s⁻¹	157000 M⁻¹ s⁻¹	6.9 nM	0.00099 s⁻¹	143000 M⁻¹ s⁻¹	5.2 nM	0.0025 s⁻¹	479000 M⁻¹ s⁻¹				1.08 nM	3.28 nM	no binding
h1A11.A2 (antibody, V domains shown, also called h1A11VH.1 / h1A11.A2 VL) VH: EVQLVESGGGLVQPGGSLRLSCAASGFTFSNFPMAWVRQAPGKGLEWVATISSSDGTTYYRDSVKGRFTISRDNAKNSLYLQMNSLRAEDTAVYYCARGYYNSPFAYWGQGTLVTVSS VL: DIQMTQSPSSLSASVGDRVTITCRASQDIYINLAWYQQKPGKSPKLLIFDTNDLADGVPSRFSGSGSGTDFTLTISSLQPEDFATYYCQQYDYVPPTFGQGTKLEIK	0.634 nM	2.38 nM	3 nM	0.000421 s⁻¹	142000 M⁻¹ s⁻¹	3.9 nM	0.000527 s⁻¹	134000 M⁻¹ s⁻¹	5 nM	0.000904 s⁻¹	181000 M⁻¹ s⁻¹				0.854 nM	3.68 nM	no binding
h1A11.A12 (antibody, V domains shown, also called h1A11VH.1 / h1A11.A12 VL) VH: EVQLVESGGGLVQPGGSLRLSCAASGFTFSNFPMAWVRQAPGKGLEWVATISSSDGTTYYRDSVKGRFTISRDNAKNSLYLQMNSLRAEDTAVYYCARGYYNSPFAYWGQGTLVTVSS VL: DIQMTQSPSSLSASVGDRVTITCRASQDIYYNLAWYQQKPGKSPKLLIFDTSSLADGVPSRFSGSGSGTDFTLTISSLQPEDFATYFCQQYDWYPPTFGQGTKLEIK	0.568 nM	1.77 nM	7.6 nM	0.00132 s⁻¹	173000 M⁻¹ s⁻¹	10 nM	0.00162 s⁻¹	158000 M⁻¹ s⁻¹							0.832 nM	1.66 nM	no binding

Next, values leading:

EC50 (mouse DLL4 on cells [1])	EC50 [2]	Kd [3]	koff [3]	kon [3]	Kd [4]	koff [4]	kon [4]	Kd [5]	koff [5]	kon [5]	Kd [6]	koff [6]	kon [6]	Inhibition of Notch Activation via DLL4 cells, Notch reporter assay (mouse DLL4 on cells [7])	Inhibition of Notch Activation via DLL4 cells, Notch reporter assay [8]	binding result [6]	Binder
0.517 nM	2.45 nM	0.04 nM	7.18e-06 s⁻¹	178000 M⁻¹ s⁻¹	0.18 nM	3.12e-05 s⁻¹	171000 M⁻¹ s⁻¹	0.12 nM	2.34e-05 s⁻¹	203000 M⁻¹ s⁻¹	18 nM	0.00305 s⁻¹	169000 M⁻¹ s⁻¹	1.19 nM	0.894 nM		h1A11.C6 (antibody, V domains shown, also called h1A11.C6 VH / h1A11VL.1) VH: EVQLVESGGGLVQPGGSLRLSCAASGFTFRNFPMAWVRQAPGKGLEWVATISSSDGWPTYRDSVKGRFTISRDNAKSSLYLQMNSLRAEDTAVYYCSRGYYNSPFAYWGQGTLVTVSS VL: DIQMTQSPSSLSASVGDRVTITCRASEDIYSNLAWYQQKPGKAPKLLIYDTNNLADGVPSRFSGSGSGTDFTLTISSLQPEDFATYYCQQYNNYPPTFGQGTKLEIK
1.4 nM	3.59 nM	0.087 nM	9.39e-06 s⁻¹	109000 M⁻¹ s⁻¹	0.17 nM	1.73e-05 s⁻¹	99000 M⁻¹ s⁻¹	0.35 nM	4.04e-05 s⁻¹	117000 M⁻¹ s⁻¹	8.6 nM	0.00101 s⁻¹	118000 M⁻¹ s⁻¹	2.35 nM	1.84 nM		h1A11.G3 (antibody, V domains shown, also called h1A11.G3 VH / h1A11.E12 VL) VH: EVQLVESGGGLVQPGGSLRLSCAASGFTFRYFPMSWVRQAPGKGLEWVASISGSDGWASYRDSVKGRFTISRDNAKNSLYLQMNSLRAEDTAVYYCARGYYNSPFAYWGQGTLVTVSS VL: DIQMTQSPSSLSASVGDRVTITCRASQEIYRNLAWYQQKPGKSPKLLIFDTSVLADGVPSRFSGSGSGTDSTLTISSLQPEDFATYYCQQYTYYPPTFGQGTKLEIK
0.46 nM	1.17 nM	0.075 nM	9.82e-06 s⁻¹	131000 M⁻¹ s⁻¹	0.17 nM	2e-05 s⁻¹	118000 M⁻¹ s⁻¹	0.28 nM	3.97e-05 s⁻¹	143000 M⁻¹ s⁻¹	5.8 nM	0.000679 s⁻¹	116000 M⁻¹ s⁻¹	0.649 nM	0.484 nM		h1A11.F5 (antibody, V domains shown, also called h1A11.F5 VH / h1A11.E12 VL) VH: EVQLVESGGGLVQPGGSLRLSCAASGFTFRHFPMAWVRQAPGKGLEWVATISSSDAWPSYRDSVKGRFTISRDNAKNSLYLQMNSLRAEDTAVYYCARGYYNSPFAYWGQGTLVTVSS VL: DIQMTQSPSSLSASVGDRVTITCRASQEIYRNLAWYQQKPGKSPKLLIFDTSVLADGVPSRFSGSGSGTDSTLTISSLQPEDFATYYCQQYTYYPPTFGQGTKLEIK
